Measurements: publication PMC7722742, “Structure of native glycolipoprotein filaments in honeybee royal jelly” (Nature Communications, 2020)

T1: MRJP1_4/apisimin4 hetero-octamer (native royal jelly filament) (Apis mellifera, UniProt O18330+Q8ISL8)
T1 construct: gene Mrjp1; native, purified from commercial royal jelly (Bio-Gelee Royale) at pH 4.0; N-glycosylated (Asn28, Asn144, Asn177); signal peptides removed; N-termini NILRGE (MRJP1) and KTSISV (apisimin); model residues 20-431 of MRJP1 and 33-76 of apisimin; 4:4 hetero-octamers stacked into helical filaments
T1 sequence (O18330 20-432): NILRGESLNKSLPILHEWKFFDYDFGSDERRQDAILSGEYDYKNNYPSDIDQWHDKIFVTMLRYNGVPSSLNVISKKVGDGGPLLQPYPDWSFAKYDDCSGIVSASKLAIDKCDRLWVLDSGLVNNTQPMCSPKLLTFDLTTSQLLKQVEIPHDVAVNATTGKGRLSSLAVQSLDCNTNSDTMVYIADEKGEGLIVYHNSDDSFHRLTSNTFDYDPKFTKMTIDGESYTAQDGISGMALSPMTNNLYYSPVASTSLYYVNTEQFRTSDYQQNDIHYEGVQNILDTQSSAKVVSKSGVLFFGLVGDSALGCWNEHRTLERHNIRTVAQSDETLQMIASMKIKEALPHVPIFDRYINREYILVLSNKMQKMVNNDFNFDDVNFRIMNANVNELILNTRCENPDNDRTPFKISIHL
T1 sequence (Q8ISL8 25-78): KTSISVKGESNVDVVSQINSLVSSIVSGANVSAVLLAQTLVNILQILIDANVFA

B1: apisimin (natural protein, Apis mellifera, UniProt Q8ISL8 25-78, looked up)
chain: T1 sequence (Q8ISL8 25-78)
notes: apisimin, small (5 kDa) royal jelly protein, honeybee Apis mellifera, native; the final model holds residues 33-76; Native protein, co-purified with MRJP1 in the filaments; also called apimisin; source: purified from commercially available royal jelly as RJ filaments (ammonium sulfate precipitation, SEC at pH 4.0)
B2: major royal jelly protein 1 (natural protein, Apis mellifera, UniProt O18330 20-432, looked up)
chain: T1 sequence (O18330 20-432)
modifications: N-linked glycans at Asn28, Asn144 and Asn177 (modelled: one NAG at Asn28, two NAG at Asn144, two NAG plus a BMA at Asn177)
notes: major royal jelly protein 1 (MRJP1), honeybee Apis mellifera, native glycoprotein from royal jelly; the final model holds residues 20-431; Native protein; in the filament it stands with apisimin, 24-methylenecholesterol and further unassigned lipids; also called MRJP1; MRPJ1; source: purified from commercially available royal jelly as RJ filaments (ammonium sulfate precipitation, SEC at pH 4.0)

Columns and labels:
[1] = biological target: T1, MRJP1_4/apisimin4 hetero-octamer (native royal jelly filament); assay: cryo-EM helical reconstruction, […] A; format: binding; conditions: pH 4.0; native co-purified lipid, 8 per MRJP1_4/apisimin4 unit; built starting from crystal structure PDB 5yyl
[2] = biological target: the molecule itself; assay: cryo-EM structure; real-space helical reconstruction of native RJ filaments purified at pH 4.0 (10 mM formic acid-NaOH pH 4.0, 150 mM NaCl), graphene oxide-coated grids, 3.5 Å
[3] = biological target: B2; assay: as above; conditions: both partners purified
[4] = biological target: B1; assay: quantitative Edman sequencing; purified RJ filaments (SEC fractions above 500 kDa, pH 4.0); six degradation cycles; molar ratio of the MRJP1 and apisimin residues; conditions: both partners purified

Row | Molecule | cryo-EM helical reconstruction, 3.5 A [1] | binding result [2] | binding result [3] | stoichiometry N [4]
1 | C=C(CC[C@@H](C)[C@H]1CC[C@H]2[C@@H]3CC=C4C[C@@H](O)CC[C@]4(C)[C@H]3CC[C@]12C)C(C)C [24-methylenecholesterol] | Apisimin is colored in red, 24-methylenecholesterol in blue, and N-glycans in silver. | – | – | –
2 | B1 | – | binds | binds | –
3 | B2 | – | binds | – | 1.15 ± 0.32 molar ratio MRJP1/apisimin
